{"source": "paper PMC5944358", "molecular_target": "MVN-DAVEI4-3Trp (not stated | HIV-1 (strain not stated))", "assay": "ELISA", "note": "pEC50: −log10 of the molar value.", "data": [{"substance": "HIV-1 YU2 gp120 (from UniProt P35961 32-498) (natural protein)", "values": [{"measurement": "pEC50", "result": 7.10}]}]}
